Measurements published in article PMC13189624, “MORC2 mediates transcriptional regulation through liquid-liquid phase separation” (eLife, 2026).
Where a chain is given by its changes, count along the chain named. Names may count otherwise.

B1: selenomethionine MORC2 CC3 domain (residues 901-1003), as crystallised (domain or fragment, human, UniProt Q9Y6X9 901-1003, looked up)
chain: LSTNHETIDLLVQILRNCLRYFLPPSFPISKKQLSAMNSDELISFPLKEYFKQYEVGLQNLCNSYQSRADSRAKASEESLRTSERKLRETEEKLQKLRTNIVA
modifications: selenomethionine (SeMet) in place of methionine
notes: MORC2, human, UniProt Q9Y6X9, residues 901-1003; The methods say 'MORC2 CC3 fused with a GPGS linker'; also called CC3 dimer; source: E. coli B834 in M9 medium with selenomethionine, purified (SEC, Superdex 75)
B2: MORC2 CTDΔCW (residues 537-1032) (domain or fragment, human, UniProt Q9Y6X9 537-1032, looked up)
chain: EASEQKQKVPLGTFRKDMKTQEEKQKQLTEKIRQQQEKLEALQKTTPIRSQADLKKLPLEVTTRPSTEEPVRRPQRPRSPPLPAVIRNAPSRPPSLPTPRPASQPRKAPVISSTPKLPALAAREEASTSRLLQPPEAPRKPANTLVKTASRPAPLVQQLSPSLLPNSKSPREVPSPKVIKTPVVKKTESPIKLSPATPSRKRSVAVSDEEEVEEEAERRKERCKRGRFVVKEEKKDSNELSDSAGEEDSADLKRAQKDKGLHVEVRVNREWYTGRVTAVEVGKHVVRWKVKFDYVPTDTTPRDRWVEKGSEDVRLMKPPSPEHQSLDTQQEGGEEEVGPVAQQAIAVAEPSTSECLRIEPDTTALSTNHETIDLLVQILRNCLRYFLPPSFPISKKQLSAMNSDELISFPLKEYFKQYEVGLQNLCNSYQSRADSRAKASEESLRTSERKLRETEEKLQKLRTNIVALLQKVQEDIDINTDDELDAYIEDLITKGD
notes: MORC2, human, UniProt Q9Y6X9, residues 537-1032; Bacterial constructs were made with MBP or Trx fusion proteins; Which one was used here, and whether it was kept, is in Supplementary file 2; source: Escherichia coli, purified
B3: Trx-901-975 (CC3 truncation) (domain or fragment, human, UniProt Q9Y6X9 901-975, looked up)
chain: LSTNHETIDLLVQILRNCLRYFLPPSFPISKKQLSAMNSDELISFPLKEYFKQYEVGLQNLCNSYQSRADSRAKA
notes: MORC2, human, UniProt Q9Y6X9, residues 901-975; The Trx tag points to the bacterial pET32m-type vector; Construct details are in Supplementary file 2; also called truncated CC3 constructs (residues 901-975); CC3 N-terminal region
B4: MORC2 CC3 domain (residues 901-1003) (domain or fragment, human, UniProt Q9Y6X9 901-1003, looked up)
chain: B1 chain
notes: MORC2, human, UniProt Q9Y6X9, residues 901-1003; Cloned in a modified pET32m vector (Trx-tag); Used unlabelled for SEC-SLS and uniformly 15N-labelled for the NMR titration; The methods say fragments carry a GPGS linker; also called MORC2^901-1003; coiled-coil 3; source: E. coli, purified (Ni-NTA, SEC); 15N-labelled from M9 medium for NMR
B5: MORC2 fragment 744-1032 (domain or fragment, human, UniProt Q9Y6X9 744-1032, looked up)
chain: DEEEVEEEAERRKERCKRGRFVVKEEKKDSNELSDSAGEEDSADLKRAQKDKGLHVEVRVNREWYTGRVTAVEVGKHVVRWKVKFDYVPTDTTPRDRWVEKGSEDVRLMKPPSPEHQSLDTQQEGGEEEVGPVAQQAIAVAEPSTSECLRIEPDTTALSTNHETIDLLVQILRNCLRYFLPPSFPISKKQLSAMNSDELISFPLKEYFKQYEVGLQNLCNSYQSRADSRAKASEESLRTSERKLRETEEKLQKLRTNIVALLQKVQEDIDINTDDELDAYIEDLITKGD
notes: MORC2, human, UniProt Q9Y6X9, residues 744-1032; The expression system and tags are in Supplementary file 2
B6: Trx-tagged MORC2 901-1032 Y921A (domain or fragment, human, UniProt Q9Y6X9 901-1032, looked up)
chain: LSTNHETIDLLVQILRNCLRAFLPPSFPISKKQLSAMNSDELISFPLKEYFKQYEVGLQNLCNSYQSRADSRAKASEESLRTSERKLRETEEKLQKLRTNIVALLQKVQEDIDINTDDELDAYIEDLITKGD
notes: MORC2, human, UniProt Q9Y6X9, residues 901-1032 with Y921A; the same legend also prints residue 921 as F921; source: E. coli, purified
B7: wild-type MORC2 901-1032 with Trx-tag (domain or fragment, human, UniProt Q9Y6X9 901-1032, looked up)
chain: B6 chain with A21Y
notes: MORC2, human, UniProt Q9Y6X9, residues 901-1032; Cloned in a modified pET32m vector with Trx-tag (14 kDa); also called WT MORC2^901-1032 (with Trx-tag); WT CC3-IBD; source: E. coli, purified (Ni-NTA, SEC)
B8: Trx-tagged MORC2 901-1032 L958Q (domain or fragment, human, UniProt Q9Y6X9 901-1032, looked up)
chain: B6 chain with A21Y, L58Q
notes: MORC2, human, UniProt Q9Y6X9, residues 901-1032 with L958Q; source: E. coli, purified
B9: MORC2 CC3-IBD (residues 901-1032) (domain or fragment, human, UniProt Q9Y6X9 901-1032, looked up)
chain: B6 chain with A21Y
notes: MORC2, human, UniProt Q9Y6X9, residues 901-1032; The legend names no Trx tag on it, and it may be the same as the Trx-tagged m4; The methods say fragments carry a GPGS linker; Construct details are in Supplementary file 2; also called MORC2^901-1032
B10: Trx-tagged MORC2 901-1032 L915Q (domain or fragment, human, UniProt Q9Y6X9 901-1032, looked up)
chain: B6 chain with L15Q, A21Y
notes: MORC2, human, UniProt Q9Y6X9, residues 901-1032 with L915Q; source: E. coli, purified
B11: Trx-tagged MORC2 901-1032 I908Q (domain or fragment, human, UniProt Q9Y6X9 901-1032, looked up)
chain: B6 chain with I8Q, A21Y
notes: MORC2, human, UniProt Q9Y6X9, residues 901-1032 with I908Q; source: E. coli, purified
B12: Trx-tagged MORC2 901-1032 Y954A (domain or fragment, human, UniProt Q9Y6X9 901-1032, looked up)
chain: B6 chain with A21Y, Y54A
notes: MORC2, human, UniProt Q9Y6X9, residues 901-1032 with Y954A; source: E. coli, purified
B13: Trx-tagged MORC2 901-1032 L911Q (domain or fragment, human, UniProt Q9Y6X9 901-1032, looked up)
chain: B6 chain with L11Q, A21Y
notes: MORC2, human, UniProt Q9Y6X9, residues 901-1032 with L911Q; source: E. coli, purified
B14: Trx-tagged MORC2 901-1032 F922Q (domain or fragment, human, UniProt Q9Y6X9 901-1032, looked up)
chain: B6 chain with A21Y, F22Q
notes: MORC2, human, UniProt Q9Y6X9, residues 901-1032 with F922Q; source: E. coli, purified
B15: Trx-tagged MORC2 901-1032 F951Q (domain or fragment, human, UniProt Q9Y6X9 901-1032, looked up)
chain: B6 chain with A21Y, F51Q
notes: MORC2, human, UniProt Q9Y6X9, residues 901-1032 with F951Q; source: E. coli, purified
B16: full-length human MORC2 (MORC2FL, residues 1-1032) (natural protein, UniProt Q9Y6X9 1-1032, looked up)
chain: MAFTNYSSLNRAQLTFEYLHTNSTTHEFLFGALAELVDNARDADATRIDIYAERREDLRGGFMLCFLDDGAGMDPSDAASVIQFGKSAKRTPESTQIGQYGNGLKSGSMRIGKDFILFTKKEDTMTCLFLSRTFHEEEGIDEVIVPLPTWNARTREPVTDNVEKFAIETELIYKYSPFRTEEEVMTQFMKIPGDSGTLVIIFNLKLMDNGEPELDIISNPRDIQMAETSPEGTKPERRSFRAYAAVLYIDPRMRIFIHGHKVQTKRLSCCLYKPRMYKYTSSRFKTRAEQEVKKAEHVARIAEEKAREAESKARTLEVRLGGDLTRDSRVMLRQVQNRAITLRREADVKKRIKEAKQRALKEPKELNFVFGVNIEHRDLDGMFIYNCSRLIKMYEKVGPQLEGGMACGGVVGVVDVPYLVLEPTHNKQDFADAKEYRHLLRAMGEHLAQYWKDIAIAQRGIIKFWDEFGYLSANWNQPPSSELRYKRRRAMEIPTTIQCDLCLKWRTLPFQLSSVEKDYPDTWVCSMNPDPEQDRCEASEQKQKVPLGTFRKDMKTQEEKQKQLTEKIRQQQEKLEALQKTTPIRSQADLKKLPLEVTTRPSTEEPVRRPQRPRSPPLPAVIRNAPSRPPSLPTPRPASQPRKAPVISSTPKLPALAAREEASTSRLLQPPEAPRKPANTLVKTASRPAPLVQQLSPSLLPNSKSPREVPSPKVIKTPVVKKTESPIKLSPATPSRKRSVAVSDEEEVEEEAERRKERCKRGRFVVKEEKKDSNELSDSAGEEDSADLKRAQKDKGLHVEVRVNREWYTGRVTAVEVGKHVVRWKVKFDYVPTDTTPRDRWVEKGSEDVRLMKPPSPEHQSLDTQQEGGEEEVGPVAQQAIAVAEPSTSECLRIEPDTTALSTNHETIDLLVQILRNCLRYFLPPSFPISKKQLSAMNSDELISFPLKEYFKQYEVGLQNLCNSYQSRADSRAKASEESLRTSERKLRETEEKLQKLRTNIVALLQKVQEDIDINTDDELDAYIEDLITKGD
notes: MORC2, human, UniProt Q9Y6X9, residues 1-1032; cDNA amplified from a HeLa cDNA library; The plasmid is called MORC2-6xHis; Construct details are in Supplementary file 2; source: HEK293F, transiently transfected, purified (Ni-NTA, Superose 6 gel filtration), nucleic acid-free

Biological target: the molecule itself
Test: crystal structure; SeMet CC3 (901-1003); sitting drop, 0.1 M citric acid pH 3.5, 25% w/v PEG 3350, 16 °C; 3.1 Å

**Q.** Does B1 bind?
**A.** Result: binds

Biological target: the molecule itself
Test: SEC-MALS; size-exclusion chromatography with static light scattering (miniDawn); fragments at 70 μM; Superdex 200 increase or Superose 6 increase; 50 mM Tris-HCl pH 8.0, 150 mM NaCl, 1 mM EDTA, 1 mM DTT

**Q.** Which “stoichiometry N” value does the source give for B2 here?
**A.** The value was 2.

**Q.** B3 was tested. Which “stoichiometry N” value did it give?
**A.** The value was 2.

**Q.** With B4 as the protein, how does the “stoichiometry N” value read?
**A.** Its value is 2.

**Q.** For B5, which “stoichiometry N” value is on record?
**A.** Its value is 2.

**Q.** Does B6 bind?
**A.** Result: binds

**Q.** With B7 as the protein, how does the “stoichiometry N” value read?
**A.** Its value is 2.

**Q.** Does B8 bind?
**A.** Result: binds

**Q.** How did the “stoichiometry N” value turn out when B9 was run?
**A.** Its value is 2.

**Q.** Does B10 bind?
**A.** Result: binds

**Q.** Does B11 bind?
**A.** Result: binds

**Q.** Does B12 bind?
**A.** Result: binds

**Q.** Does B13 bind?
**A.** Result: binds

**Q.** Does B14 bind?
**A.** Result: binds

**Q.** Does B15 bind?
**A.** Result: binds

Biological target: the molecule itself
Test: SEC-MALS; size-exclusion chromatography with static light scattering (miniDawn); MORC2FL at 70 μM; 50 mM Tris-HCl pH 8.0, 1000 mM NaCl, 1 mM EDTA, 1 mM DTT; no ATP; also run with 601 DNA

**Q.** With B16 as the protein, how does the “stoichiometry N” value read?
**A.** Its value is 2.
